Assay results: US20240174765A1 (ACADEMIA SINICA, published 2024)
Values belong to the binder of their own block, whether it stands above or below them.

What was measured:
[1] = biological target: T1, enolase 1 (ENO1), endogenous in CL1-5 human lung cancer cells (human, UniProt P06733 2-434); assay: flow cytometry on live cells
T1 construct: whole, on cells; Used for ENO1 on the surface of live or fixed CL1-5 cells, and for endogenous ENO1 in CL1-5 membrane extracts and lysates (cross-link IP, co-IP); also called alpha-enolase; surface form ENO1
T1 sequence (P06733 2-434): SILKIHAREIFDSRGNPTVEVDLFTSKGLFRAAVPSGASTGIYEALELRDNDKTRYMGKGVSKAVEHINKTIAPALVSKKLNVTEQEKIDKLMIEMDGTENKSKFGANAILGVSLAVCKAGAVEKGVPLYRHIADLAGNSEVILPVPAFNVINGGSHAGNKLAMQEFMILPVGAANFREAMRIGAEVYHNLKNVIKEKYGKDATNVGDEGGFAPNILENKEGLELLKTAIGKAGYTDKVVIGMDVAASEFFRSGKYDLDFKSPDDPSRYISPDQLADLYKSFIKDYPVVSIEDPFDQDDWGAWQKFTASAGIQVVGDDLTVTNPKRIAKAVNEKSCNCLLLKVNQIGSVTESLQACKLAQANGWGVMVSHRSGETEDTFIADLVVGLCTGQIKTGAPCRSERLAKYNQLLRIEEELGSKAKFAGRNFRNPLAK

[2] = biological target: T1, enolase 1 (ENO1), endogenous in CL1-5 …; assay: flow cytometry on live CL1-5 cells

binding result [1]: binds
B1: chimeric ENO1-22 (chENO1-22) (antibody, V domains shown)
VH: QVQLQQSGPEVVRPGVSVKISCKGSGYTFTDYAMHWVKQSHAKSLEWIGVISTYNGNTNYNQKFKGKATMTVDKSSSTAYMELARLTSEDSAIYYCARSPLRYWGQGTTLTVSS
VL: QIVLSQSPAILSASPGEKVTMTCRASSSVSYMHWYQQKPGSSPKPWIYATSNLASGVPARFSGSGSGTSYSLTISRVEAEDAATYYCQQWSSNPLTFGAGTKLELK
notes: Variable domain of anti-ENO1 mAb-22 cloned into a human IgG Fc vector; also called chimeric ENO1 mAb; chimeric ENO1 antibody

binding result [2]: binds
B2: anti-ENO1 mAb-22 (antibody, V domains shown)
VH: B1 VH
VL: B1 VL
notes: Mouse hybridoma monoclonal antibody; also called ENO1-22; anti-ENO1 mAb-22 antibody
